From patent US20240409647A1 (SINOMAB BIOSCIENCE, published 2024) come the findings set out here.

Assay [1] has as its target T1, human IL-17RB protein (recombinant, R&D systems) (human).
T1 construct: Bought protein; also called hIL17RB
T1 sequence (Q9NRM6 whole entry, looked up): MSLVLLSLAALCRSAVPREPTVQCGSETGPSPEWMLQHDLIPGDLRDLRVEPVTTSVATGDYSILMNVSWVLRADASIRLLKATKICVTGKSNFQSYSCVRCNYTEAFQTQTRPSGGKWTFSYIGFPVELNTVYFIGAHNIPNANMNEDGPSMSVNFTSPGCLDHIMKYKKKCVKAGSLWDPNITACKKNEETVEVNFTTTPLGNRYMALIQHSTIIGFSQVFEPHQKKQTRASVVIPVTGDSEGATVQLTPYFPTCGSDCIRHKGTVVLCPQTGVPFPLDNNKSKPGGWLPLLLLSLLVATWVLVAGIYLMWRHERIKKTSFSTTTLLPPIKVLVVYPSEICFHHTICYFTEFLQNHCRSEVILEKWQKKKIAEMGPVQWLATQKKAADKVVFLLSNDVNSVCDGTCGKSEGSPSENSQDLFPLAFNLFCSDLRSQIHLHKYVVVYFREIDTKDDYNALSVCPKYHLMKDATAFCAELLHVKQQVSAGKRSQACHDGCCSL
Description: ELISA, coated receptor; SM17 at 0.08 µg/mL; well 2. In general terms: In an ELISA, binding on a coated surface is turned into a signal by an enzyme label.

In assay [2] the target is T2, human IL-17 receptor subunit C (human, UniProt Q8NAC3-2 21-467, limits assumed).
T2 construct: also called IL17RC; hIL17RC
T2 sequence (looked up): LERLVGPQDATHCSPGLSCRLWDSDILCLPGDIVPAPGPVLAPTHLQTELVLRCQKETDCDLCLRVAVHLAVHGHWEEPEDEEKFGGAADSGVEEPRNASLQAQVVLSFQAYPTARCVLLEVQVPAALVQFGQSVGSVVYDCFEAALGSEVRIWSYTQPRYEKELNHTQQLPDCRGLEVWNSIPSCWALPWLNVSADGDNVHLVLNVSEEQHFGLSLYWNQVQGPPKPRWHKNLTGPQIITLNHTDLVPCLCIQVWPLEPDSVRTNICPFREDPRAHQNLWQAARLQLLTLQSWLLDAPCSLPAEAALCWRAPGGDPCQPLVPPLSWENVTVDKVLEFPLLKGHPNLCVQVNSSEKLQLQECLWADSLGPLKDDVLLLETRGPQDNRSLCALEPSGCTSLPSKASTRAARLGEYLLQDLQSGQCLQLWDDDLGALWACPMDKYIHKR
The assay can be described thus: ELISA, coated receptor; SM17 at 0.08 µg/mL; well 2.

The target in assay [3] is T3, human IL-17 receptor subunit D (human, UniProt Q8NFM7 28-299, limits assumed).
T3 construct: also called IL17RD; hIL 17RD
T3 sequence (looked up): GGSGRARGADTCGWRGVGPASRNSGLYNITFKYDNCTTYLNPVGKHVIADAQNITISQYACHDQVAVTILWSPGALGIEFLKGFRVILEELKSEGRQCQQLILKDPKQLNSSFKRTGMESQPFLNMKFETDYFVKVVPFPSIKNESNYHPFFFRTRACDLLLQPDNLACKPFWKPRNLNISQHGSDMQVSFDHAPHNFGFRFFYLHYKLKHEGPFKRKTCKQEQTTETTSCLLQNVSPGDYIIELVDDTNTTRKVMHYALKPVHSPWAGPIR
Description: ELISA, coated receptor; SM17 at 0.08 µg/mL; well 2.

Assay [4] addresses T4, human IL-17 receptor subunit E (human, UniProt Q8NFR9 24-454, limits assumed).
T4 construct: also called hIL17RE
T4 sequence (looked up): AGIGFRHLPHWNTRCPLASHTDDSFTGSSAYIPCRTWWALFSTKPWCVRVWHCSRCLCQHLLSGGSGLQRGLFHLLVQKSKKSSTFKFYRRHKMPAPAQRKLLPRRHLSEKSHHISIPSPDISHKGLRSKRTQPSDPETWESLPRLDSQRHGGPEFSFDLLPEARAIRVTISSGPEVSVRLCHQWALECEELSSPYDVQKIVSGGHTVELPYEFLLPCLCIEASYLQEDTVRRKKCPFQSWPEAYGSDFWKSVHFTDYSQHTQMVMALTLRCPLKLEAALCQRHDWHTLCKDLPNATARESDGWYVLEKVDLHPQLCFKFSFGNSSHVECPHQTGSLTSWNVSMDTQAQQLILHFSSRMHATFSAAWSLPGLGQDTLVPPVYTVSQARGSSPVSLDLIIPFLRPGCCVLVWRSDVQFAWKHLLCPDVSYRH
Description: ELISA, coated receptor; SM17 at 0.08 µg/mL; well 2.

Assay [5] concerns the target T1, human IL-17RB protein (recombinant, R&D …). The assay can be described thus: ELISA, coated receptor; SM17 at 0.00064 µg/mL; well 2.
Assay [6] addresses T2, human IL-17 receptor subunit C. Described as above.
Assay [7] deals with T3, human IL-17 receptor subunit D. The description is as above.
Assay [8] has as its target T5, human IL-17 receptor subunit A (human, UniProt Q96F46 33-320).
T5 construct: also called IL17RA; hIL17RA
Described as above.

Assay [9] deals with T4, human IL-17 receptor subunit E. Described as above.
The target in assay [10] is T1, human IL-17RB protein (recombinant, R&D …). Description: ELISA, coated receptor; SM17 at 0.016 µg/mL; well 1.
Assay [11] concerns the target T2, human IL-17 receptor subunit C. The description is as above.
The target of assay [12] is T3, human IL-17 receptor subunit D. The assay is described as above.
In assay [13] the target is T5, human IL-17 receptor subunit A. Described as above.
In assay [14] the target is T4, human IL-17 receptor subunit E. The description is as above.

B1: SM17 (antibody, human IgG4 S228P, kappa, V domains shown)
VH: QVQLVQSGAEVKKPGASVKVSCKASGYTFISYWMNWVRQAPGQGLEWMGRIDPYDSEIQYNQKFKDRVTMTRDTSISTAYMELSRLRSDDTAVYYCARSGGFDWFAYWGQGTLVTVSS
VL: DIQMTQSPSSLSASVGDRVTITCRASENINSNLAWYQQKPGKAPKLLLYDVTNLADGVPSRFSGSGSGTDYTLTISSLQPEDFATYYCQHFWGPPYTFGGGTKVEIKR
notes: other paragraphs and claim 15 call the same entries VH and VL; also called humanized anti-IL17RB monoclonal antibody
On to B1, for which the “OD 450 nm Absorption” value in assay [1] was 0.64 OD450; in assay [2] it was -0.02 OD450; in assay [3], 0.01 OD450; in assay [4], 0 OD450; in assay [5] it was 0.07 OD450; in assay [6], 0.08 OD450. Also, the “OD 450 nm Absorption” value is 0.02 OD450 in [7]; 0.05 OD450 in assay [8]; -0.16 OD450 in assay [9]; 0.35 OD450 in assay [10]; 0.09 OD450 in assay [11]; 0.07 OD450 in [12]. The entries for the “OD 450 nm Absorption” value in assay [13] and in assay [14] were 0.01 OD450 and 0 OD450, respectively.
